Experimental data published in patent publication US20240287160A1.

Biological target: EBOV GP on infectious virus (Ebola virus , Mayinga) (UniProt Q05320)
Experiment: cell-based or functional assay

Sequence of UniProt Q05320 (Q05320 33-676): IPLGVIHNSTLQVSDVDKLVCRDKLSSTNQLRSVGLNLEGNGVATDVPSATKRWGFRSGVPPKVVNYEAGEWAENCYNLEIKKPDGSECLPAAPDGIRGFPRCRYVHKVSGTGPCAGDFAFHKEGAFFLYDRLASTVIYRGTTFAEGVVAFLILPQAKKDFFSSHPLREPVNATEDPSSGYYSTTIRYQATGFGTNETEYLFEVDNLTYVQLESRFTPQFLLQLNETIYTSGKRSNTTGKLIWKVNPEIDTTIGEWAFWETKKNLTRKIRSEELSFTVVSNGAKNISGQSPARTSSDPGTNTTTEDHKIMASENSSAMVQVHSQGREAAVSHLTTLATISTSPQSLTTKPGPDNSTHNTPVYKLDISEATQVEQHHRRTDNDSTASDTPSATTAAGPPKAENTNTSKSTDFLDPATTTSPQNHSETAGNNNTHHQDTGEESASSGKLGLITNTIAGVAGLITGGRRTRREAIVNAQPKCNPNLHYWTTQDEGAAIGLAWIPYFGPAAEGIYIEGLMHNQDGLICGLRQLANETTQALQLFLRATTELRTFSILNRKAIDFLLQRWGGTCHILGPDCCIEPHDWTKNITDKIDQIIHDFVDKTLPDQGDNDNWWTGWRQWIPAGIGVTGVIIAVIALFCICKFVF

Binder	half maximal inhibitory concentration (IC50), neutralization of VSV/EBOV GP [µg/mL]
rEBOV-442 IgG1 (antibody, V domains shown) VH: EVQLVESGGGLVKPGGSLRLSCTGSGGTGFTFKYAGMSWVRQAPGKGPEWIGRIKSRIDGGTTDYAAPVKDRFIVSRDDSRNTLYLQMNSLKTEDTAVYYCATGSGKGPSASFGESYYYYDFINVWGKGTTVTVSS VL: ESVLTQSPGTLSLSPGERATLSCRASQSISRKYLAWYQQKPGQAPRLLIYGSSSRATGIPDRFSGSGSGTDFTLTISRLEPEDFAVYYCHQYESSPWTFGQGTKVEIK	< 1.5
rEBOV-515 (recombinant wild-type IgG1) (antibody, V domains shown) VH: QVQLHESGPGLVKPSQTLSLTCTVSGGSINSAGYYWTWIRQHPGKGLEWIGYIDYTGRTYYNPSLESRVIISIDTSKNHFSLRLTSVSAADTAVYYCARESSWVSELGRDNWGQGTLVTVSS VL: EIVMTQSPATLPVSPGEGATLSCRASQSVFTNLAWYQQKPGQAPRLLIYDASTRATGIPARFSGSGSGTEFTLTISSLQSEDFAVYYCQQYNNWPRTYGQGTRVEVK	< 1.5
